The values below come from PMC5759264.

pKd: −log10 of the molar value.

In this experiment the target is Recombinant human His-tagged CEACAM5 extracellular domain (human) (UniProt P06731). Kind of experiment: BLI. Background: In BLI a coated tip is dipped into the sample, and binding shifts an interference pattern.
UniProt P06731, sequence (P06731 35-702): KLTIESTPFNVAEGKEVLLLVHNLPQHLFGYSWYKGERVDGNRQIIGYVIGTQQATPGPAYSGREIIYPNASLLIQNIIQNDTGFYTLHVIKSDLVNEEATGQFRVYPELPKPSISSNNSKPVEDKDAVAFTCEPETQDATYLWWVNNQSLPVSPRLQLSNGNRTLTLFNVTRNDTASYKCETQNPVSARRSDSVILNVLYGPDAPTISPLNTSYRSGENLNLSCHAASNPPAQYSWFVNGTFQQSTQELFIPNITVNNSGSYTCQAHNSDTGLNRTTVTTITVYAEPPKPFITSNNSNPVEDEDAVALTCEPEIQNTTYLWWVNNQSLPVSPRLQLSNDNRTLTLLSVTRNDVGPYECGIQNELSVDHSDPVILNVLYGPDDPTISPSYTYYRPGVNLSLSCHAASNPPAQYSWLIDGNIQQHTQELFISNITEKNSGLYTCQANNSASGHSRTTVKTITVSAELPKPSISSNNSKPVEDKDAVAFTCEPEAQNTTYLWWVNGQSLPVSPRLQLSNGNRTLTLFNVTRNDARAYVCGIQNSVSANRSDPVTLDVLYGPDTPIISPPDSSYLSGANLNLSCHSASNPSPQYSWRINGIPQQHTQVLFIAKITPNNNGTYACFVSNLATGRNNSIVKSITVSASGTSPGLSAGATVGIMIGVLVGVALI

For orientation: pKd means −log10 of the Kd, conventionally taken in molar units. As for “common light chain IgG variant 4F02 (from UniProt P01624)”, the pKd is 8.60.
As to “common light chain IgG variant 4G07 (from UniProt P01624)”, the pKd is 9.22.
